To fix the notation:
B1: NRCoV2-17 VHH-Fc (Fc fusion)
chain: EVQLQQSGGGLVQTGGSLRLSCAAAGSPFSQLAMSWYRQISGKERAWVASISPTGNRSYSKIAKGRFTISRDNAKNTVTLQMTSLKPEDTAAYICQAANVNGGDYWGQGTQVTVSS
notes: bivalent VHH-Fc
B2: NRCoV2-MRed04 VHH-Fc (Fc fusion)
chain: EVQLVESGGGLVQPGRSLRLSCAASGNSFSISTMGWFRQAPGKERELVASIWSDTTTSYADSVKGRFTISTDNTRTKVYLQMSSLNPEDTAVYYCAADRGFVVRGQYDYWGQGTQVTVSS
notes: bivalent VHH-Fc
B3: NRCoV2-18 VHH-Fc (Fc fusion)
chain: EVQLVESGGGLVQAGGSLRLSCVASGITISGYNMAWWRQTRGKQTERVAFINSGGSTTYSDSVKGRFTISRDNGKNTAYLQMNSLNAEDTADYFCSLHTSHDYWGQGTQVTVSS
notes: bivalent VHH-Fc
B4: NRCoV2-12 VHH-Fc (Fc fusion)
chain: EVQLQQSGGGLVQAGGSLRLSCAASGRTFRNYVMGWFRQAPQAPGKDHEFVAAISWGGTEIYYADSVKGRFTISRDNAKNTVYLQMNSLKPEDTAVYYCAADRGLSYYYTRTTEYNYWGQGTQVTVSS
notes: bivalent VHH-Fc
B5: NRCoV2-20 VHH-Fc (Fc fusion)
chain: EVQLQQSGGGLVQPGGSLRLSCAASGRTFSNYVVGWFRQAPQAPGKDHEFVAVISGSDTETYYADSVKGRFTISRDNAKNTVYLQMNSLKPEDTAVYYCAADRGMSYYYTRATEYYYWGQGTQVTVSS
notes: bivalent VHH-Fc
B6: NRCoV2-05 VHH-Fc (Fc fusion)
chain: EVKLVQSGGGLVQPGGSLRLSCAASGFIFSNYAMNWVRQAPGKGLEWVSGINSGGGDTRYADSVKGRFTVSRDNAKNTLYLQMNSLKPEDTGVYYCSKGPVSSYYGSGYDYRGQGTQVTVSS
notes: bivalent VHH-Fc
B7: NRCoV2-14 VHH-Fc (Fc fusion)
chain: EVQLVSSGGGLVQAGGSLRLSCEASGTTFSHYAVGWYRQAPGKQREWVASISVFGSTTYGGSVAGRFTISRDNDKNTVDLQMNSLKPEDTAVYYCHAVNADIGGDYWGQGTQVTVSS
notes: bivalent VHH-Fc
B8: NRCoV2-17 VHH (VHH)
VHH: B1 chain
B9: NRCoV2-15 VHH (VHH)
VHH: EVQLVSSGGGLVEAGGSLRLSCIASGSTSGRNTMGWFRQAPGKQREWVAIVSTSGATNYAGSVKGRFTLSRDNAKNAVYLQMNNLKPEDTAVYYCYAAYGGGGDYWGQGTQVTVSS
B10: NRCoV2-SR02 VHH (VHH)
VHH: EVQLVDSGGGLVQAGGSLRLSCTASEFTLNYYSIGWFRQSPGKEREGVSCIRYSGGGIDYADSVKGRFTISRDNAKNTVYLTMNSLKPEDTAVYYCAADRLYSRACPTAGGRNYWGQGTQVTVSS
B11: NRCoV2-S2G4 VHH (VHH)
VHH: QVQLVQSGGGLVQAGGSLTLSCAPSGSTFSGYATNWYRQAPGKQRELVATISSDGDKNYADSVKGRFTISRDNAKNTVYLQMNSLKPEDTAVYYCNKHWWTGDWWGQGTQVTVSS
B12: NRCoV2-S2F3 VHH (VHH)
VHH: EVQLVQSGGGLVQAGGSLRLSCATSVRILSVPAMGWYRQAPGKEREMVAVITSGGSTNYADSVKGRFTISRDNAKNTVYLQMNSLKLEDTAVYQCNLRDILSQPFWGQGTQVTVSS
B13: NRCoV2-SR16 VHH (VHH)
VHH: QVQLVQSAGGLVQAGGSLRLSCVVSGTTFSRYHMGWHRQAPGKQRDFVAGISTSGAVTYADSAKGRFTISRDNAKNTVYLEMNSLKLEDTALYYCNTGGWDYRSSTFIMGLNWGQGTQVTVSS
B14: NRCoV2-18 VHH (VHH)
VHH: B3 chain
B15: NRCoV2-SR04 VHH (VHH)
VHH: QVQLVESGGGLVQAGGSLRLSCAASGRTFSSHTVGWYRQAPGKQRDLVAAISMGGNTNYADYADSVKGRFTISRDNAKNTLYLQMNSLKPEDTAVYYCNTAALVGNRLLPMATITWGQGTQVTVSS
B16: NRCoV2-SR13 VHH (VHH)
VHH: EVQLVESGGGLVTTGGSLRLSCATSGSRFGSKHMAWYRQAPGKQRDLVAAISSGGSTHYGSSVKGRFTISRDNAKSTVYLQMNSLNPEDTAVFYCNMGGWDYRSNTYIPGSRSDYWGQGTQVTVSS
B17: NRCoV2-S2G3 VHH (VHH)
VHH: QVQLVQSGGGSVQAGGSLRLSCAASGSTFGIFLMGWRRQAPGKQRELVAHITSGGATNYADSVKGRFTISRDNAKNTVYLQMNSLEPEDTAVYYCYTTKRDDASVYWGQGTQVTVSS
B18: NRCoV2-20 VHH (VHH)
VHH: B5 chain
B19: NRCoV2-SR01 VHH (VHH)
VHH: EVQLVQSGGGSVQAGGSLRLSCVASGFTFDNYAIGWFRQAPGKEREGVSCISGNGGVTIYADSVKGRFTISRDNAKNLVYLQMNSLKPEDTAVYYCAATGIRSTWSVYGCSRLAGPYDYWGQGTQVTVSS
B20: NRCoV2-14 VHH (VHH)
VHH: B7 chain

The target of one assay is Human SARS-CoV-2_Wuhan S (SmT1) (SARS-CoV-2 (Wuhan), UniProt P0DTC2 14-1208). Description: flow cytometry SVNA, VHH-Fc vs biotin-S binding to Vero E6 ACE2.
B1 displayed a half-maximal inhibitory concentration (IC50) of 8.6 nM, an IC99 of 101 nM and an Imax % of 88%.

On to B2, for which the IC50 is 4.6 nM, the IC99 is 262 nM and the Imax % worked out at 73%.

B3 yielded an IC50 of 12 nM, an IC99 of 680 nM and an Imax % of 90%.

Molecule B4 returned an IC50 of 7.3 nM, a concentration for an effect of 99% (IC99) of 840 nM and an Imax % of 90%.

Turning to B5, the IC50 worked out at 8.7 nM, the IC99 came out at 70.3 nM and the Imax % came to 66%.

B6: the IC50 turned out to be 6.7 nM, the IC99 was 37 nM and the Imax % worked out at 95%.

The molecule B7 displayed an IC50 of 9.9 nM, an IC99 of 160 nM and an Imax % of 83%.

The target of a further assay is SARS-CoV-2 spike protein S on live virus, Wuhan (strain SARS-CoV-2/Canada/VIDO-01/2020) (SARS-CoV-2 (Wuhan), UniProt P0DTC2 14-1273). Description: cell-based or functional assay.
For B1, the “LVNA IC50” value was 2.82 nM.

Take B2: the “LVNA IC50” value amounted to 9.61 nM.

For B3, the “LVNA IC50” value was found to be 6.4 nM.

On to B4, for which the “LVNA IC50” value is 2.82 nM.

On to B5, for which the “LVNA IC50” value amounted to 11.2 nM.

Consider B6, for which the “LVNA IC50” value came out at 0.0008 nM.

Take B7: the “LVNA IC50” value amounted to 3.1 nM.

Another assay concerns the target Human SARS-CoV-2_Wuhan S (SmT1) (SARS-CoV-2 (Wuhan), UniProt P0DTC2 14-1208). Description: tandem SPR, immobilized S, orientation 1: VHH alone.
Take B8: the “End 1st inj (RU)” value amounted to 16.7 RU.

Regarding B9, the “End 1st inj (RU)” value was 10.1 RU.

For the molecule B10, the “End 1st inj (RU)” value stood at 10.3 RU.

As for B11, the “End 1st inj (RU)” value is 21.3 RU.

As to B12, the “End 1st inj (RU)” value amounted to 50 RU.

Take B13: the “End 1st inj (RU)” value stood at 37.4 RU.

On to B14, for which the “End 1st inj (RU)” value came to 12.6 RU.

With B15, the “End 1st inj (RU)” value came to 10.9 RU.

As for B16, the “End 1st inj (RU)” value was found to be 36.9 RU.

For B17, the “End 1st inj (RU)” value is 59 RU.

Turning to B18, the “End 1st inj (RU)” value came to 27.1 RU.

B19: the “End 1st inj (RU)” value is 39.4 RU.

For B20, the “End 1st inj (RU)” value amounted to 26.9 RU.

Source of the values: patent publication US20240270826A1 (NATIONAL RESEARCH COUNCIL OF CANADA, published 2024).
